In PMC12827253, “GADD45β inhibits RIPK3-mediated NF-κB activation by interfering with NEMO-RIPK1-RIPK3 interactions” (Cell Death Discovery, 2025) one finds Kd data, which are given here for 1 molecule.

The target in this experiment is T1, human recombinant RIPK3 (human, UniProt Q9Y572 1-518).
T1 construct: RIPK3, human, bought recombinant protein; also called rhRIPK3; source: bought: Mybiosource cod; MBS1442585
In words: BLI; rhRIPK3 immobilised on AR2G sensor (10 μg/mL in 10 mM NaAc pH 4.5); rhGADD45β as analyte, 3.1–100 nM; 25 mM Tris pH 7.5, 100 mM NaCl, 0.02% Tween 20, 0.1% BSA; 25 °C; 1:1 Langmuir model; apparent. To be noted: both partners purified.

T1 sequence (Q9Y572 whole entry): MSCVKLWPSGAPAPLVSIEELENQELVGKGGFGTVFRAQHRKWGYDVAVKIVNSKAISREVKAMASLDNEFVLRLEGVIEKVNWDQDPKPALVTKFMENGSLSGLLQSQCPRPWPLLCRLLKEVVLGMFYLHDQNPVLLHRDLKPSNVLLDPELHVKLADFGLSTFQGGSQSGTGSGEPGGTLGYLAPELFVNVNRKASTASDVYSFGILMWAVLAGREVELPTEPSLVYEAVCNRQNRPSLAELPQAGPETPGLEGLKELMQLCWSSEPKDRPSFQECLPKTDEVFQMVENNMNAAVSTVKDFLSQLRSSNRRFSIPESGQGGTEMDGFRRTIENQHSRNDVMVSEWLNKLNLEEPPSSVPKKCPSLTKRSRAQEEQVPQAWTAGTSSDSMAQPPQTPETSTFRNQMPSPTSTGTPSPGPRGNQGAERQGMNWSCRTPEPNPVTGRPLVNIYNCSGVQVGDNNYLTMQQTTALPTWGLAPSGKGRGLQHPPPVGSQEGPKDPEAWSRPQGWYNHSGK

B1: recombinant human GADD45β (natural protein, UniProt O75293 1-160, looked up)
chain: MTLEELVACDNAAQKMQTVTAAVEELLVAAQRQDRLTVGVYESAKLMNVDPDSVVLCLLAIDEEEEDDIALQIHFTLIQSFCCDNDINIVRVSGMQRLAQLLGEPAETQGTTEARDLHCLLVTNPHTDAWKSHGLVEVASYCEESRGNNQWVPYISLQER
notes: GADD45β, human, recombinant; also called rhGADD45β; Growth Arrest and DNA Damage-inducible beta
For B1, the Kd stood at 1.73 nM.
